Assay results taken from the nanobody polyreactivity screen of Harvey et al. (2022).

Experiment: yeast display, Sf9 membrane polyspecificity reagent, FACS + sequencing; frameworks hold sequencing errors
How it was run: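 Galactose-induced (36–48 hours) yeast carrying a synthetic nanobody display library were exposed to 10% biotinylated, detergent-solubilized Sf9 membrane reagent at 4 °C for 1 hour. FACS followed streptavidin microbead enrichment, using low and high (top ~1%) gates for expression (anti-HA) and reagent binding (streptavidin). Colony PCR, MiSeq 2 × 250 sequencing and CDR-length filtering followed. Labels for polyreactivity reflect the gate of origin.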

Sequence: QVQLVESGGGLVQAGGSLRLSCAASGGTFTSYAMGWYRQAPGKERELVAAISWSGGSTYYADSVKGRFTISRDNAKNTVYLQMKSLKPEDTAVYYCAAVFYRYNAVRYDYWGQGTQVTVSS
- polyreactivity (PSR sort gate): high polyreactivity

Sequence: QVQLVESGGGLVQAGGSLRLSCAASGSTFDYYDMGWYRQAPGKERELVATVTSGGSTNYADSVKGRFTISRDNAKNTVYLQMNSLKPEDTAVYYCAADIGGDGEGYDYWGQGTQVTLSS
- polyreactivity (PSR sort gate): low polyreactivity

Sequence: QDQLVQSGGGLVQAGGSLRKSCAASGSTFNPNTMGWNKQAPGKERELVASITWRGGRTYYADSVKGRFTISRDNAKNTVSLQMNSLKPEDTAVFYCASVTFSYDGYDYWGQGTQVTVTS
- polyreactivity (PSR sort gate): low polyreactivity

Sequence: QVQLVESGGGLVQAGGSLSLSCAASGFIFTPYTMGWYREAPGKERELVAAITDGSSTNYADSVKGRFTISRDNAKNTVYLQMNSLKPEDTAVYYCAKDWPSAVYGSWAGRYDYWGQGSQVTVSS
- polyreactivity (PSR sort gate): low polyreactivity

Sequence: QVQLVESGGGLVQAGGSLRLSCAASGFIFGYYAMGWYRQAPGKERELVAAISYSGGSTYYADSVKGRFTISRDNAKNTVYLQMNSLKPEDTAVYYCAKYGQSNYDWGQGTQVTVSS
- polyreactivity (PSR sort gate): high polyreactivity

Sequence: QVQLVESGGGLVQAGGSLRLSCAASGRTFGGYVMGWYRQAPGKESELVATITDSGGSTHYADSVKGRFTISRDNAKNTVYLQMNSLKPEDTAVYYCARRRSYRYPSEYNYWGQGTQVTVSS
- polyreactivity (PSR sort gate): high polyreactivity

Sequence: QVQLVESGGGLVQAGGSLRLSCAASGITFPLYVLGWYRQAPGKDRELVAAISASGGSTYADSVKGRFTISRDNAKNTVYFQMNSLKTEVTAVYYCNADVYVGYEYDYWGQGTQVTVSS
- polyreactivity (PSR sort gate): low polyreactivity

Sequence: QVQLVESGGGLVQAGGSLRLSCAASGSIFPSNAMGWYRQAPGKERELVAGITRGGSTNYADSVKGRFTISRDNAKNTVYLQMNSLKPEDTAVYYCAADSGFDTAPYDYWGQGTQVTVSS
- polyreactivity (PSR sort gate): low polyreactivity

Sequence: QVQLVESGGGLVQAGGSLRLSCAASGRIFTPNAMGWYRQPPGKERELVAAITWSGDNTYADSVKGRFTISRDNAKNTVYLQMNILKPEDTAVYYCAAAYGYGHKKYGYWGQGTQVTVSS
- polyreactivity (PSR sort gate): low polyreactivity

Sequence: QVQLVESGGCIVQEGGSLRLSGAASGSTIRGNAMGWYRHAHGQEREFVADITRNGGRTYYADSVKGRFTISRDNAKNTVYLQMNSLKPEDTAVSYCAKRDAYFVSQRNMDYWGQGTQVTVSS
- polyreactivity (PSR sort gate): high polyreactivity

Sequence: QDQLVESGGGLVQAGGSLRISIAASARTFRDYVMGWSRQAPGKERELVAAISTRGASTYYADSVKGRFTISRDNAKNTVYLQMNTLKPEDTADYYCAARSTRRGNEYDYWGQGTQVTVSS
- polyreactivity (PSR sort gate): high polyreactivity

Sequence: QVQLVESGGGLVQAGGSLRLSCAASGSTFAYYTMGWYRQAPGKERELVAAISSRGGSTYYADSVKGRFTISRDNAKNTVYLQMNSLKPEDTAVYYCAKSPRVAHYTSAYDYWGQGTQVTVSS
- polyreactivity (PSR sort gate): high polyreactivity

Sequence: QVQLVESGGGLVQAGGSLRLSCAASGSIFTFYAMGWYRPAPGKERELVAAITRSGGSTYYADSVKGRFTISRDNAKNTVYLQMNSLKPEDTAVYYCAKDPSSYVTYRYYYWGQGTEVTVSS
- polyreactivity (PSR sort gate): low polyreactivity

Sequence: QVQLVESGGGLVQAGGILRLSCAASGRIFRVNTMGWYRKAPGKERELVAAIRSSGTRTYYADSVKGRFTISRDNAKNTVYLQMNSVKPEDTAVYYCAAYAWRYQAWEFGYWGQGTQVTVSS
- polyreactivity (PSR sort gate): high polyreactivity

Sequence: QVQLVESGGGLVQAGGSLRLSCAASGSIFRAYAMGWYRQAPGKERELVADISRSGGSTYYADSVKGRFTISRDNAKNTVYLQMNSLKPEDTAVYYCAAVFYLYSNLYGEYDYWGQGTQVTVSS
- polyreactivity (PSR sort gate): low polyreactivity

Sequence: QVQHVESAGGLVQAGGSLRLSCAASGGIFWVYAMGWSRQAPGTERELVAAISNSDTSTSYADSVKGRFTISRDNAKNTVYLQMNSLKPEDTAVYYCNAVSPSLSGDYWGQGTQVTVSS
- polyreactivity (PSR sort gate): low polyreactivity

Sequence: QVQLVESGGGLVQAGGSLRLSCAASGSTFKYNAMGWYRQAPGKERELVAAITRGGRTYYADSVKGRFTISRDNAKNTVYLQMNSLKPEDTAVYYCAAKWLGTAGDDYWGQGTQVTVSS
- polyreactivity (PSR sort gate): high polyreactivity

Sequence: QVQLVESGGGLVQAGGSLRLSCAASGSIFNGYDMGWYRQAPWKERELVAAISLSGDSTYYADSVKGRFTISRDNAKNTVYLQMNSLKPEDTAVYYCAKGTISSYSPYWYYDYSDYEYWGQGTQVTVSS
- polyreactivity (PSR sort gate): low polyreactivity

Sequence: QVQLVESGGGLVQAGGSLRLSCAATGIIFGHYAMGWYRQAPGKERELVAAITSGGRTYYADSVKGRFTISRDNAKNTVYLQMNSLKPEDTAVYYCNVDQGYQGYLRIFDYWGQGTQVTVSS
- polyreactivity (PSR sort gate): low polyreactivity

Sequence: QVQLVESGGGLVQAGGSLRLSCAASGFTFAYYAMGSYRQAPGKERELVAAIRKSGATTYYADSVKGRFTISRDNSKNTVYLQMISLKPEDTAVYYCNAVVKSSSRGSIAHPGYDYWGQGTQVTVSS
- polyreactivity (PSR sort gate): high polyreactivity

Sequence: QVQLVETVGGLVQAGFSLRLSCAASGFTYGAYAMGLYRQPPGKERELVAAITLRTGGSTYYADSVKGRFTISRDNAKYTVYLQMNSLKPEDTAVYYCAARVGLSPGGYGYWGQGTQVTVSS
- polyreactivity (PSR sort gate): high polyreactivity

Sequence: QVQLVESGGGLVQAGGSLRLSCAASGFTFGWYAMGWYRQAPGKEREFVAAISQTGGSTYYADSVKGRFTISRDNAKNTVYLQMNSLKPEDTAVYYCAAPGKRRGVYYWGQGTQVTVSS
- polyreactivity (PSR sort gate): high polyreactivity

Sequence: QLQLVESGGGLDQAGGSLRLSCAASRYTMGWYRQAPGKEMELVPAITGGGSTNYADSVKGRFTISRDNAKNTVYLHMNSLKPEDTAVYYCAVDYAVSYAGWVLRYDYWGQGTQVTVSS
- polyreactivity (PSR sort gate): low polyreactivity

Sequence: QVQLVESGGGLVQAGGILRLSCAASGRTIYYYAMGRYRQAPRKERELVASISWSGGSTYYADSVKGRFTISRDNAKNTVYLQMNSLKPEDTAVSYCNAQYHTYRWLYAVYLSGDYWGQGTQVTVSS
- polyreactivity (PSR sort gate): low polyreactivity

Sequence: QVQLVESGGGLVQAGGSLRLSCAASGIIFDRYAMGWYRQAPGKERELVAAITRSGGRTYYADSVKGRFTISRDNAKNTVYLQMNSLKPEDTAVYYCNAYRSALYPPEYDYWGQGTQVTVSS
- polyreactivity (PSR sort gate): high polyreactivity

Sequence: QVQLVESGGGLVQAGGSLRLSCAASGRTFSSYAMGWYIQAPGKERELVAAITRGGGSTYYADSVKGRFTISRDNAKNTVYLQMNSLKPEDTAVYYCAADYGRDYRAFNYWGQGTQVTVSS
- polyreactivity (PSR sort gate): high polyreactivity

Sequence: QVQLVESGGGLVQAGGSLRLSCAASGRILNTYTMGWYRQAPGKERELVAAITSRGGSTYYADSVKGRFTISRDNAKNTVYLQMNSLKPEDTAVYYCAAGYPYDYWGQGTQVTVSS
- polyreactivity (PSR sort gate): high polyreactivity

Sequence: QVQLVESGGGLVQAGGSLRLSCADSGIIFYYNAMGWYRQAPGKEREFVAAIDDRGDSTYYADSVKGRFTISRDNAKNTVYLQMNSLKPEDTAVYYCAARDGYLYFDAMDYWGQGTLVTVSS
- polyreactivity (PSR sort gate): low polyreactivity

Sequence: QVQLVESGGGLVQAGGSLRLSCAATGTTFHYYAMGWYRQAPGKERELVASITRSGGRTYYADSVKGRFTISRDNAKNTVYLQMNSLKPEDTAVYYCAARSYRRTSYDYPSNPNYEYYYWGQGTQVTVSS
- polyreactivity (PSR sort gate): high polyreactivity

Sequence: QVQLVESGGGLVQAGGSLRLSCAASGSIFYWNTMGWYRQAPGKERELVAAIRRGGNTYYADSVKGRFTISRDNAKNTVYLQMNCLKPEDTAVYYCNRDGTYVYHGGEYWGQGTQVTVSS
- polyreactivity (PSR sort gate): low polyreactivity

Sequence: QVQLVESGGGLVQAGGSLSLSCAATGTNFCHNAMGWYRPAPWKERELGAGITSVGSTYFAYSVKGRFTISRDNAKNTVYLQMNSLKPEDTAVYYSAKGYDFRRSYEYWGQGTQVNVSS
- polyreactivity (PSR sort gate): low polyreactivity

Sequence: QVQLVESGGGLVQAGGSLRLSCAASGSTFDANAMGWYRQEPGKERELVATISDGGSTNYADSVKGRFTISRDNAKNTVYLQMNSLKPEDTAVYYCAADFSPWGGWYMSLDYWGQGTQVTVSS
- polyreactivity (PSR sort gate): low polyreactivity

Sequence: QVQLVESGVGLVQAGGSLRLSCAASGRICVKYAMGWYRQAPGKERELVAAISASGGGTYYADSVKGRFTISRDNAKNTVYLQMNSLKPEDTAVYYCNADFRYPGQVPSYVTYDYWGQGTQVTVSS
- polyreactivity (PSR sort gate): low polyreactivity

Sequence: QVQLVESGGGLVQAGGSLRLSCAASGSTFVKYAMGWYRQAPGKERELVAAITDGGGGTFYADSVKGRFTISRDNGLNTVYLQMNSLNPEDTAVFYCNVGVSSAEDFDYWGQGTQVTVSS
- polyreactivity (PSR sort gate): low polyreactivity

Sequence: QVQLVESGGGLVQAGGSLRLSCAASGRIFRFYAMGWYRQAPGKERELVAAISWRGGRTYYADSVKGRFTISRDNAKNTVYVQMNSLKPEDTAVYYCNADKYETSGWKYVSWGQGTQVTVSS
- polyreactivity (PSR sort gate): low polyreactivity

Sequence: QVQLVESGGGLVQAGRSLRLSCAASGSIFTYYAMGWYRQAPGKERELVAAINWSDSSTYNADSVKGRFTISRDNAKNTVYLQMNSLKPEDTAVYDCAATNYADGDYWGQGTQVTVSS
- polyreactivity (PSR sort gate): low polyreactivity

Sequence: QVQLVETGGCLVQAGGSLRLSCAASGFIFYIYAMGWYRQAPGKERELVAAITSGGSTYYADSVKGRFTITRDNAKNTVYLQMNSLKPDDTAVYYCASESYYGYDYWGQGTQVTVSS
- polyreactivity (PSR sort gate): low polyreactivity

Sequence: QVQLVESGGGLVQAGGSLRLSCAASGSTFTPNAMGWYRQAPGKERELVAAINWSDSSTYYADSVKGRFTISRDNAKNTVYLQMNSLKPEDTAVYFCAAAAQYGQLQVPVYYWGQGTQVTVSS
- polyreactivity (PSR sort gate): low polyreactivity

Sequence: QVQLVESGGGLVQAGGSLRLSCAASGFIFEHYAMGWYRQAPGKEREMVARISWRGGSTYYADSVKGRFTISRDNAKNTVYLQMNSLKPEDTAVYYCNAQEVVYFGYYPSDYWGQGTQVTVSS
- polyreactivity (PSR sort gate): low polyreactivity

Sequence: QVQLVESGGGLVQAGGSLRLSCAASGSIFRYNAMGWYRQAPGKEREFVAAITRSGGSTYADSVKGRFTISRDNAKNTVYLQMNSLKPEDTAVYYCAATFKWYSHTKPRFDYWGQGTQVTVSS
- polyreactivity (PSR sort gate): low polyreactivity

Sequence: QVPLVESVGGLVQAGGSLRLSCAASGSTFLSNAMGWYRQAPGKERELVASINWIGGSTRYADSVKGRFTISRDNAKNTVYLQMNSLKPEDTAVYYCASRRRWGGHGAFLYYYWGQGTQVTVSS
- polyreactivity (PSR sort gate): high polyreactivity

Sequence: QVQLVESGGGLVQAGGSLRLSCAASGSTFFRYTMGWYRQAPGKERELVAAITSGGGTDYADSVKGRFTISRDNGKNTVYLQMNSLKPDDTAVYYCAVILSWRDYYLYWRGSWRDDYWGQGTQVSVSS
- polyreactivity (PSR sort gate): low polyreactivity

Sequence: QVQLVESGGGLVQAGGSLRLSCAASGRTFRWYAMGWYRQAPGKESELVASISRGGSTSYADSVKGRFTISRDNAKNTVYLQMNSLKPEDTAVYYCAAGGFARTISYYWGQGTQVTVSS
- polyreactivity (PSR sort gate): high polyreactivity
